Measured values as given in article PMC5089723, “Structural Insights into the Nucleotide-Binding Domains of the P1B-type ATPases HMA6 and HMA8 from Arabidopsis thaliana” (PLoS ONE, 2016).

B1: HMA8 nucleotide binding and phosphorylation domains (HMA8^N/P, residues 526-806) (domain or fragment, Arabidopsis thaliana, UniProt B9DFX7 526-806, looked up)
chain: RGYLIRGGDVLERLASIDCVALDKTGTLTEGRPVVSGVASLGYEEQEVLKMAAAVEKTATHPIAKAIVNEAESLNLKTPETRGQLTEPGFGTLAEIDGRFVAVGSLEWVSDRFLKKNDSSDMVKLESLLDHKLSNTSSTSRYSKTVVYVGREGEGIIGAIAISDCLRQDAEFTVARLQEKGIKTVLLSGDREGAVATVAKNVGIKSESTNYSLSPEKKFEFISNLQSSGHRVAMVGDGINDAPSLAQADVGIALKIEAQENAASNAASVILVRNKLSHVVD
notes: also called N/P domain of HMA8; source: expressed and purified
B2: HMA6 nucleotide binding and phosphorylation domains (HMA6^N/P, residues 576-853) (domain or fragment, Arabidopsis thaliana, UniProt Q9SZC9 576-853, looked up)
chain: RGLLLRGGDILEKFSLVDTVVFDKTGTLTKGHPVVTEVIIPENPRHNLNDTWSEVEVLMLAAAVESNTTHPVGKAIVKAARARNCQTMKAEDGTFTEEPGSGAVAIVNNKRVTVGTLEWVKRHGATGNSLLALEEHEINNQSVVYIGVDNTLAAVIRFEDKVREDAAQVVENLTRQGIDVYMLSGDKRNAANYVASVVGINHERVIAGVKPAEKKNFINELQKNKKIVAMVGDGINDAAALASSNVGVAMGGGAGAASEVSPVVLMGNRLTQLLDAME
notes: also called N/P domain of HMA6; source: expressed and purified

Target: the molecule itself
Assay: not stated; oligomeric state of the purified N/P domains and of their truncated fragments 'in solution'

Protein	stoichiometry N
B1	2
B2	2
